Drawing on publication PMC10315472 (2023), this text covers koff for one molecule.

The target of the assay is wild-type SARS-CoV-2 Spike receptor-binding domain (SARS-CoV-2, UniProt P0DTC2 319-527). The assay is described as follows: SPR.

A word on the koff: it is the first-order rate constant of dissociation.

The molecule CPWNAYECDRHCVSKGYTGGNCRGKIRQTCHCY [(ΔGFG)AMSIN] had a koff of 0.0223 s⁻¹.
